From publication PMC6660750, “Catalytic deficiency of O-GlcNAc transferase leads to X-linked intellectual disability” (Proceedings of the National Academy of Sciences of the …, 2019)

T1: truncated OGT N567K (O-GlcNAc transferase, residues 323-1044, N567K variant) (human) (UniProt O15294)
T1 sequence: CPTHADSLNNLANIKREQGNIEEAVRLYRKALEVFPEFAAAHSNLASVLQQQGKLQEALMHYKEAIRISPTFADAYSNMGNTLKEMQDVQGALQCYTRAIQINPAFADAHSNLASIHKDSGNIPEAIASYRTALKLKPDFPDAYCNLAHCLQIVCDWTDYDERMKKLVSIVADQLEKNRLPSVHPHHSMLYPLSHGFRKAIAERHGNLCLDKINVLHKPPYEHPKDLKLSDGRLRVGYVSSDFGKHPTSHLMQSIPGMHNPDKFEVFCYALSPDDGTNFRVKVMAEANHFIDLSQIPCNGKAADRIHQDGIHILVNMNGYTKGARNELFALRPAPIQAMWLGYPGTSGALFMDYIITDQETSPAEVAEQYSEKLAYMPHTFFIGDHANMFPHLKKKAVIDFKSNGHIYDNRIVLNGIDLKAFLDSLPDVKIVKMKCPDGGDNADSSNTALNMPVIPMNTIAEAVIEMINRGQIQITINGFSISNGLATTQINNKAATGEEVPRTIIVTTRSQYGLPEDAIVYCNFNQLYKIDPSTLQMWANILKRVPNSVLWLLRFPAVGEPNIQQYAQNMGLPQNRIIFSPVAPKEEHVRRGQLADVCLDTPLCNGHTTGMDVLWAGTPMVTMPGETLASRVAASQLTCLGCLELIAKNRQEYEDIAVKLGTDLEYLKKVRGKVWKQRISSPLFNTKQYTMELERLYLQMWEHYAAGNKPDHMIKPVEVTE

T2: truncated OGT N567K (O-GlcNAc transferase, residues 323-1044, N567K variant) (human, UniProt O15294 323-1044, N567K)
T2 construct: O-GlcNAc transferase (OGT), human, residues 323-1044, with the patient missense mutation N567K in the catalytic domain; In the crystal it also holds the donor analog UDP-5S-GlcNAc; N567K is a de novo mutation found in patients; also called N567K OGT; O-linked β-N-acetyl-D-glucosamine (O-GlcNAc) transferase N567K; source: recombinant, from Escherichia coli (expression and purification in SI …)
T2 sequence (looked up): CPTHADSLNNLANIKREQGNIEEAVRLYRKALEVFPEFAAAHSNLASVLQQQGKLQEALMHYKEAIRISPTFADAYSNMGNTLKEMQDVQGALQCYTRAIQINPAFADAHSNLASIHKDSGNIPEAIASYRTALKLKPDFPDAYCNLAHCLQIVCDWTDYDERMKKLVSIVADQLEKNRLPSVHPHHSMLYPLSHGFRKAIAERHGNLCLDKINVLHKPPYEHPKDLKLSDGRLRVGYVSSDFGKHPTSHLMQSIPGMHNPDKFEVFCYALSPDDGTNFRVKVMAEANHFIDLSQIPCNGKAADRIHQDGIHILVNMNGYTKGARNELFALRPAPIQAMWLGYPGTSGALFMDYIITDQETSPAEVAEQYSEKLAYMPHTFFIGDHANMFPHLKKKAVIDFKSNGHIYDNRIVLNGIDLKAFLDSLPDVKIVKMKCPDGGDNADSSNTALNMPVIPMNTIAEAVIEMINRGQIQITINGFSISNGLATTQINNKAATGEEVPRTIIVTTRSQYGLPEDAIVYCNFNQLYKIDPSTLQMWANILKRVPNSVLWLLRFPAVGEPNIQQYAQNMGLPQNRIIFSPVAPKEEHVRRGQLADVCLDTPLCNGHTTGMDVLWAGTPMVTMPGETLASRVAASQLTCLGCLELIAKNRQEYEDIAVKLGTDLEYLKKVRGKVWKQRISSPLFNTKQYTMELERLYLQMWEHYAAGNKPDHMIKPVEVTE


How the values were obtained:
[1] = target: T1, truncated OGT N567K (O-GlcNAc transferase, residues 323-1044, N567K variant) (human)
[2] = target: T2, truncated OGT N567K (O-GlcNAc …); assay: crystal structure; OGT N567K (323-1044) cocrystallized with the donor analog UDP-5S-GlcNAc and acceptor peptide P2; ternary complex; molecular replacement with PDB 5C1D; settings: both partners purified

Row | OGT glycosyltransferase activity, steady-state (Michaelis-Menten) kinetics, fluorometric assay, OGT N567K against acceptor peptide P1, compared with OGT WT [1] [fold] | binding result [2] | Binder
1 | 12 | – | KKVPVSRA [P1 acceptor peptide (KKVPVSRA)]
2 | – | binds | KKVAVSRA (OGT acceptor peptide substrate with alanine at the -2 subsite) [P2 acceptor peptide (KKVAVSRA)]
